Test results reported in patent US20260028399A1.

T1: human CD96 (human) (UniProt P40200)
T1 sequence: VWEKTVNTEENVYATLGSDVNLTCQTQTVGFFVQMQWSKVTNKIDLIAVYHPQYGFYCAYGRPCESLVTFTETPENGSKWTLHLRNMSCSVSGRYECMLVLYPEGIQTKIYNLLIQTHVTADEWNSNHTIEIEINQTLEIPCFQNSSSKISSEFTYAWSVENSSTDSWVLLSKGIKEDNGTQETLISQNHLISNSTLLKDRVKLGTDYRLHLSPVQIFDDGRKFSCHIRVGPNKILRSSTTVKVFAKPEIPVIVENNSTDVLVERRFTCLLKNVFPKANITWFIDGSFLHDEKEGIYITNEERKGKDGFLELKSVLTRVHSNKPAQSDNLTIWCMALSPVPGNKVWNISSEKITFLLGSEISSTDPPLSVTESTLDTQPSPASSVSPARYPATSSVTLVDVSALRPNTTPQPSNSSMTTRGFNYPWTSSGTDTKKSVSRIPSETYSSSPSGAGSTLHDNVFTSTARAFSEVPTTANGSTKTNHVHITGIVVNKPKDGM

T2: human TIGIT (human) (UniProt Q495A1)
T2 sequence: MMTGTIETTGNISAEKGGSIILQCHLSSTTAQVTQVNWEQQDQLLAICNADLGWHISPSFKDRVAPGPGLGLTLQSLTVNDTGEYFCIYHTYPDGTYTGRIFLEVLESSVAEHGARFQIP


How the values were obtained:
human CD96 (human) [1] = biological target: T1, human CD96 (human); assay: phage ELISA on coated CD96 (4 ug/ml), phage 2.5 x 10^10 pfu/ml, anti-M13-HRP/TMB
human TIGIT (human) [2] = biological target: T2, human TIGIT (human); assay: phage ELISA on coated TIGIT (4 ug/ml), phage 1.2 x 10^10 pfu/ml, anti-M13-HRP/TMB
human CD96 (human) [3] = biological target: T1, human CD96 (human); assay: phage ELISA on coated CD96 (4 ug/ml), phage 1.2 x 10^10 pfu/ml, anti-M13-HRP/TMB
human TIGIT (human) [4] = biological target: T2, human TIGIT (human); assay: phage ELISA on coated TIGIT (4 ug/ml), phage 4.8 x 10^8 pfu/ml (so in the source), anti-M13-HRP/TMB
human CD96 (human) [5] = biological target: T1, human CD96 (human); assay: phage ELISA on coated CD96 (4 ug/ml), phage 0 pfu/ml (no phage, background), anti-M13-HRP/TMB
human TIGIT (human) [6] = biological target: T2, human TIGIT (human); assay: phage ELISA on coated TIGIT (4 ug/ml), phage 3.7 x 10^8 pfu/ml, anti-M13-HRP/TMB
human TIGIT (human) [7] = biological target: T2, human TIGIT (human); assay: phage ELISA on coated TIGIT (4 ug/ml), phage 2.5 x 10^10 pfu/ml, anti-M13-HRP/TMB
human TIGIT (human) [8] = biological target: T2, human TIGIT (human); assay: phage ELISA on coated TIGIT (4 ug/ml), phage 6 x 10^9 pfu/ml, anti-M13-HRP/TMB
human TIGIT (human) [9] = biological target: T2, human TIGIT (human); assay: phage ELISA on coated TIGIT (4 ug/ml), phage 3 x 10^9 pfu/ml, anti-M13-HRP/TMB
human TIGIT (human) [10] = biological target: T2, human TIGIT (human); assay: phage ELISA on coated TIGIT (4 ug/ml), phage 9 x 10^7 pfu/ml, anti-M13-HRP/TMB
human TIGIT (human) [11] = biological target: T2, human TIGIT (human); assay: phage ELISA on coated TIGIT (4 ug/ml), phage 1 x 10^11 pfu/ml, anti-M13-HRP/TMB
human TIGIT (human) [12] = biological target: T2, human TIGIT (human); assay: phage ELISA on coated TIGIT (4 ug/ml), phage 7.5 x 10^8 pfu/ml, anti-M13-HRP/TMB
human TIGIT (human) [13] = biological target: T2, human TIGIT (human); assay: phage ELISA on coated TIGIT (4 ug/ml), phage 1.5 x 10^9 pfu/ml, anti-M13-HRP/TMB
human CD96 (human) [14] = biological target: T1, human CD96 (human); assay: phage ELISA on coated CD96 (4 ug/ml), phage 6 x 10^9 pfu/ml, anti-M13-HRP/TMB
human CD96 (human) [15] = biological target: T1, human CD96 (human); assay: phage ELISA on coated CD96 (4 ug/ml), phage 7.5 x 10^8 pfu/ml, anti-M13-HRP/TMB
human CD96 (human) [16] = biological target: T1, human CD96 (human); assay: phage ELISA on coated CD96 (4 ug/ml), phage 1 x 10^11 pfu/ml, anti-M13-HRP/TMB
human CD96 (human) [17] = biological target: T1, human CD96 (human); assay: phage ELISA on coated CD96 (4 ug/ml), phage 9 x 10^7 pfu/ml, anti-M13-HRP/TMB
human CD96 (human) [18] = biological target: T1, human CD96 (human); assay: phage ELISA on coated CD96 (4 ug/ml), phage 4.8 x 10^8 pfu/ml (so in the source), anti-M13-HRP/TMB
human CD96 (human) [19] = biological target: T1, human CD96 (human); assay: phage ELISA on coated CD96 (4 ug/ml), phage 3.7 x 10^8 pfu/ml, anti-M13-HRP/TMB
human CD96 (human) [20] = biological target: T1, human CD96 (human); assay: phage ELISA on coated CD96 (4 ug/ml), phage 1.5 x 10^9 pfu/ml, anti-M13-HRP/TMB
human TIGIT (human) [21] = biological target: T2, human TIGIT (human); assay: phage ELISA on coated TIGIT (4 ug/ml), phage 0 pfu/ml (no phage, background), anti-M13-HRP/TMB
human CD96 (human) [22] = biological target: T1, human CD96 (human); assay: phage ELISA on coated CD96 (4 ug/ml), phage 3 x 10^9 pfu/ml, anti-M13-HRP/TMB
human TIGIT (human) [23] = biological target: T2, human TIGIT (human); assay: phage ELISA on coated TIGIT (4 ug/ml), phage 5 x 10^10 pfu/ml, anti-M13-HRP/TMB
human CD96 (human) [24] = biological target: T1, human CD96 (human); assay: phage ELISA on coated CD96 (4 ug/ml), phage 5 x 10^10 pfu/ml, anti-M13-HRP/TMB
BSA [25] = biological target: BSA (UniProt P02769); assay: phage ELISA on coated BSA, phage 6 x 10^9 pfu/ml, anti-M13-HRP/TMB
Chain of UniProt P02769 (P02769 25-607 limits assumed): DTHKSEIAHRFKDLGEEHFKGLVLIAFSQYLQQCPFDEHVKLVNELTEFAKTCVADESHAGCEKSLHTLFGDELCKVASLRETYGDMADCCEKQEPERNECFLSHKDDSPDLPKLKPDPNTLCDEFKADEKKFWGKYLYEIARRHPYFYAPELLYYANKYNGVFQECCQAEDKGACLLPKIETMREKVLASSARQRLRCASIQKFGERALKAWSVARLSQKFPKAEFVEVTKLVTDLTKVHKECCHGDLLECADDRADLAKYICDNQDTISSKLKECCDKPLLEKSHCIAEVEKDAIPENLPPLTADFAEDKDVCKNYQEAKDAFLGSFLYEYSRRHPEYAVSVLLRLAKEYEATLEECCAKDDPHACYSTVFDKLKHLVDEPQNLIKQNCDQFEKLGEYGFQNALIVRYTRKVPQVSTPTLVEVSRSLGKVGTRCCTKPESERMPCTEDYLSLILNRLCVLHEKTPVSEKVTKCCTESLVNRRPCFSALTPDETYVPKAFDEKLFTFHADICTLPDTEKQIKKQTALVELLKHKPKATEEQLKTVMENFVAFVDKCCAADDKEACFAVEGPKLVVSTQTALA

BSA [26] = biological target: BSA (UniProt P02769); assay: phage ELISA on coated BSA, phage 2.5 x 10^10 pfu/ml, anti-M13-HRP/TMB
BSA [27] = biological target: BSA (UniProt P02769); assay: phage ELISA on coated BSA, phage 1.5 x 10^9 pfu/ml, anti-M13-HRP/TMB
BSA [28] = biological target: BSA (UniProt P02769); assay: phage ELISA on coated BSA, phage 5 x 10^10 pfu/ml, anti-M13-HRP/TMB
BSA [29] = biological target: BSA (UniProt P02769); assay: phage ELISA on coated BSA, phage 1 x 10^11 pfu/ml, anti-M13-HRP/TMB
BSA [30] = biological target: BSA (UniProt P02769); assay: phage ELISA on coated BSA, phage 3.7 x 10^8 pfu/ml, anti-M13-HRP/TMB
BSA [31] = biological target: BSA (UniProt P02769); assay: phage ELISA on coated BSA, phage 1.2 x 10^10 pfu/ml, anti-M13-HRP/TMB
BSA [32] = biological target: BSA (UniProt P02769); assay: phage ELISA on coated BSA, phage 3 x 10^9 pfu/ml, anti-M13-HRP/TMB
BSA [33] = biological target: BSA (UniProt P02769); assay: phage ELISA on coated BSA, phage 7.5 x 10^8 pfu/ml, anti-M13-HRP/TMB
BSA [34] = biological target: BSA (UniProt P02769); assay: phage ELISA on coated BSA, phage 4.8 x 10^8 pfu/ml (so in the source), anti-M13-HRP/TMB
BSA [35] = biological target: BSA (UniProt P02769); assay: phage ELISA on coated BSA, phage 0 pfu/ml (no phage, background), anti-M13-HRP/TMB
BSA [36] = biological target: BSA (UniProt P02769); assay: phage ELISA on coated BSA, phage 9 x 10^7 pfu/ml, anti-M13-HRP/TMB

Molecule | phage ELISA signal (human CD96 (human) [1]) | phage ELISA signal (human TIGIT (human) [2]) | phage ELISA signal (human CD96 (human) [3]) | phage ELISA signal (human TIGIT (human) [4]) | phage ELISA signal (human CD96 (human) [5]) | phage ELISA signal (human TIGIT (human) [6]) | phage ELISA signal (human TIGIT (human) [7]) | phage ELISA signal (human TIGIT (human) [8]) | phage ELISA signal (human TIGIT (human) [9]) | phage ELISA signal (human TIGIT (human) [10]) | phage ELISA signal (human TIGIT (human) [11]) | phage ELISA signal (human TIGIT (human) [12]) | phage ELISA signal (human TIGIT (human) [13]) | phage ELISA signal (human CD96 (human) [14]) | phage ELISA signal (human CD96 (human) [15]) | phage ELISA signal (human CD96 (human) [16]) | phage ELISA signal (human CD96 (human) [17]) | phage ELISA signal (human CD96 (human) [18]) | phage ELISA signal (human CD96 (human) [19]) | phage ELISA signal (human CD96 (human) [20]) | also measured
irrelevant phage | 0.18 | 0.15 | 0.08 | 0.03 | 0.05 | 0.03 | 0.25 | 0.09 | 0.07 | 0.04 | 0.24 | 0.03 | 0.04 | 0.08 | 0.02 | 0.59 | 0.03 | 0.02 | 0.01 | 0.02 | phage ELISA signal (human TIGIT (human) [21]): 0.04; phage ELISA signal (human CD96 (human) [22]): 0.02; phage ELISA signal (human TIGIT (human) [23]): 0.31; phage ELISA signal (human CD96 (human) [24]): 0.31
anti-CD96 clone G1 scFv (R7P1-G1), displayed on phage (scFv, part only; not given: linker, domain order, phage fusion, V domains shown, not shown: another chain or arm of the molecule; large carriers; small tags and cut ends) VH: EVQLVESGGDLVKPAGSLRLSCVASGFPFSDSDMNWVRQAPGKGLQWVAGIDEGATDTGYADAVKGRFTISRDDAKNTLYLQMNSLRADDTAMYYCAAGGNFAYWGQGTLVTVSS VL: DIVMTQTPLSLSVSPGEPASISCKASQSLLHSNGNTYLYWFRQKPGQSPQGLIYLVSKRFSWVPDRFSGSGSGTDFTLRISRVEADDAGLYYCGQGIQYPYTFSQGTKLEIK | 2.65 | – | 2.59 | – | 0.05 | – | – | – | – | – | – | – | – | 2.28 | 1.36 | 2.61 | 0.38 | 0.63 | 0.95 | 1.73 | phage ELISA signal (BSA [25]): 0.02; phage ELISA signal (BSA [26]): 0.03; phage ELISA signal (BSA [27]): 0.02; phage ELISA signal (BSA [28]): 0.04; phage ELISA signal (BSA [29]): 0.06; phage ELISA signal (BSA [30]): 0.02; phage ELISA signal (BSA [31]): 0.02; phage ELISA signal (BSA [32]): 0.02; phage ELISA signal (BSA [33]): 0.01; phage ELISA signal (BSA [34]): 0.01; phage ELISA signal (BSA [35]): 0.05; phage ELISA signal (BSA [36]): 0.03; phage ELISA signal (human CD96 (human) [22]): 2.11; phage ELISA signal (human CD96 (human) [24]): 2.68
anti-TIGIT clone C2 scFv (R8P1-C2), displayed on phage (scFv, part only; not given: linker, domain order, phage fusion, V domains shown, not shown: another chain or arm of the molecule; large carriers; small tags and cut ends) VH: GVQLVESGGDLVKPAGSLRLSCVASGFTFSNYGMSWVRQAPGKGLQWVASIASGGSATAYADAVKGRFTLSRDDAKNTLYLQMNNLRTEDTSMYYCVAPGFQYWGQGTLVTVSS VL: DIVMTQTPLSLSVSPGETASISCKASQSLLHSNGNTYLFWFRQKSGQSPQRLIYKVSNRDPGVPDRLSGSGSGTDFTLRISRVEADDAGVYYCGQGIQIPRTFGQGTKLEIK | – | 2.54 | – | 1.21 | – | 1.61 | 2.66 | 2.58 | 2.52 | 0.79 | 2.05 | 1.99 | 2.34 | – | – | – | – | – | – | – | phage ELISA signal (BSA [25]): 0.03; phage ELISA signal (BSA [26]): 0.04; phage ELISA signal (BSA [27]): 0.02; phage ELISA signal (BSA [28]): 0.04; phage ELISA signal (BSA [29]): 0.07; phage ELISA signal (BSA [30]): 0.02; phage ELISA signal (BSA [31]): 0.04; phage ELISA signal (BSA [32]): 0.02; phage ELISA signal (BSA [33]): 0.01; phage ELISA signal (BSA [34]): 0.02; phage ELISA signal (BSA [35]): 0.04; phage ELISA signal (BSA [36]): 0.03; phage ELISA signal (human TIGIT (human) [21]): 0.03; phage ELISA signal (human TIGIT (human) [23]): 2.53
